Measured values as given in US7662384B2, “Use of anti-α5β1 antibodies to inhibit cancer cell proliferation” (Facet Biotech Corporation, priority 2004, dated 2010).

Legend:
[1] = pharmacokinetic studies in cynomolgus monkeys; type: in vivo
NW231 = experiment: M200 in vitro cell proliferation assay; type: cell-based, human; conditions: NW231 (breast)
Protocol: Cancer cell lines were plated at a density of 2500 cells/well in 96-well plates in IMDM with supplements in the presence or absence of 10% FBS. At the time of plating, cells were challenged with various concentrations M200 or a non-function blocking anti-α5 antibody, VC5. […] All growth studies were done at least 3 times in triplicate.

rat α5β1 integrin = experiment: species cross-reactivity of anti-α5β1 antibody; type: binding
[2] = Phase I dose-escalation study: immunogenicity (double-antigen bridging ELISA); type: in vivo, human
Protocol: Immunogenicity of M200 was determined by a double-antigen bridging ELISA assay. Serum samples for anti-M200 antibodies were obtained from patients before treatment, prior to the second dose, and at study exit, 45 days after the last dose of M200. In addition, serum for anti-M200 antibodies was drawn if the interval between doses was […]. Samples were stored and evaluated at the end of the study. Samples that tested positive for antibodies to M200 were re-assayed for neutralizing antibodies to M200. Patients with known exposure to murine or chimeric monoclonal antibodies were screened for the presence of anti-M200 antibodies prior to receiving the first dose of M200.

[3] = tested on: activated endothelial cells; conditions: regardless of the growth factor stimulus; cited from earlier work
refractory solid tumors = experiment: Phase I dose-escalation study: tumor response (RECIST); type: in vivo, human; set-up: key to Response outcome: Complete Response (CR): Disappearance of all target lesions confirmed by repeat imaging 25 to 28 days after CR first documented.; Partial Response (PR): At least a 30% decrease in the sum of LD of target lesions, taking as reference the baseline sum LD; Stable Disease (SD): Neither sufficient shrinkage to qualify for PR nor sufficient increase to qualify for PD, taking as references the smallest sum LD.; Progressive Disease (PD): At least a 20% increase in the sum of LD of target lesions, taking as reference the smallest sum LD recorded since treatment started, or the appearance of one or more new lesions
Protocol: A two-part Phase I open-label study was carried to determine the effects of treatment with up to 6 dose levels, from 0.5 mg/kg to 15.0 mg/kg of M200 (volociximab) in 21 human patients with a variety of refractory solid tumor types. The total duration of treatment for the first part was 6 weeks with physical assessments through 45 days after the last dose.
The dosing levels and schedule used in the study were as follows. M200 was administered to the 21 patients on days 1, 15, 22, 29, and 36. The dosing levels and numbers of patients per level were: 0.5 mg/kg (1 patient), 1.0 mg/kg (2 patient), 2.5 mg/kg (3 patients), 5.0 mg/kg (3 patients), 10.0 mg/kg (6 patients) and 15 mg/kg (6 patients). The dose was administered as an intravenous infusion over 1 hour. The first and second doses were separated by a two week period to allow sampling for single-dose pharmacokinetic data. The real-time PK measurements performed following the first dose were used to predict each patient's peak serum concentration following the fifth dose. If the predicted peak serum concentration following the fifth dose was <750 μg/mL, the patient received all 5 doses of M200. The remaining 3 doses were given weekly and followed by a 45-day evaluation period.
Patient evaluations during the study included the following: • a. Screening (within 14 days of study entry) of: medical history and physical examination, ECOG performance status, routine chemistry panel, complete blood count (CBC) with differential and platelets, sensitive C-reactive protein (CRP), urinalysis with microscopic analysis (UA/micro), electrocardiogram (ECG), chest radiograph (CXR), disease-directed body CT or MRI, urine pregnancy test within 48 hours prior to dosing, and coagulation studies (prothrombin [PT] and partial thromboplastin time [PTT]), anti-M200 antibodies (i.e., to detect cross-reactive HAMA or HACA) for patients who previously received murine or chimeric antibodies, head CT for patients with tumors that commonly metastasize to brain or CNS, and, in some patients, a biopsy to evaluate tumor vessel vascularity. • b. On-study laboratory evaluations: routine chemistry panel, urate, serum amylase, CBC with differential and platelets, UA/micro. • c. Routine disease-directed radiographic imaging (e.g., CT scanning) before and after treatment with M200 was used to evaluate tumor response using uni-dimensional, RECIST criteria. Target lesions were selected on the basis of their size (lesions with the longest diameter (LD)) and their suitability for accurate repetitive measurements (either by imaging techniques or clinically). A sum of the LD for all target lesions was calculated and reported as the baseline sum LD. The baseline sum LD was used as reference by which to characterize the objective tumor response. The following response criteria for the target lesions was used to assess the best overall response. • Complete Response (CR): Disappearance of all target lesions confirmed by repeat imaging 25 to 28 days after CR first documented. • Partial Response (PR): At least a 30% decrease in the sum of LD of target lesions, taking as reference the baseline sum LD, confirmed by repeat imaging 25 to 28 days after PR first documented. • Stable Disease (SD): Neither sufficient shrinkage to qualify for PR nor sufficient increase to qualify for PD, taking as references the smallest sum LD. • Progressive Disease (PD): At least a 20% increase in the sum of LD of target lesions, taking as reference the smallest sum LD recorded since treatment started, or the appearance of one or more new lesions. • d. Blood drawn for serum PK measurements, immunogenicity assays (anti-M200 antibodies), vascular growth factors, and measurement of bound and unbound α5β1 on peripheral blood monocytes. • e. A 3-mm punch biopsy of superficial tumor metastasis was obtained and frozen after the last treatment with M200 from patients who consented (not required for enrollment) to the procedure. […]

B1: M200: chimeric IgG4 anti-α5β1 antibody derived from IIA1; generic name volociximab (antibody, V domains shown)
VH: MAVLGLLLCLVTFPSCVLSQVQLKESGPGLVAPSQSLSITCTISGFSLTDYGVHWVRQPPGKGLEWLVVIWSDGSSTYNSALKSRMTIRKDNSKSQVFLIMNSLQTDDSAMYYCARHGTYYGMTTTGDALDYWGQGTSVTVSS
VL: MDFQVQIFSFLLISASVIMSRGQIVLTQSPAIMSASLGERVTMTCTASSSVSSNYLHWYQQKPGSAPNLWIYSTSNLASGVPARFSGSGSGTSYSLTISSMEAEDAATYYCHQYLRSPPTFGGGTKLEIKDMSVDMSV
modifications: chimeric antibody
notes: chimeric IgG4 anti-α5β1 antibody derived from IIA1; generic name volociximab
- mean peak level (serum) ([1]; 50 mg/kg after 4 weekly doses): 1862 µg/mL
- range of peak level (serum) ([1]; 50 mg/kg after 4 weekly doses): 1000 to 2606 µg/mL
- toxicity ([1]; at peak serum concentrations after 50 mg/kg, 4 weekly doses): no toxicity
- % Growth Inhibition +Serum (NW231; 10% FBS, 4-day assay): 35%
- % Growth Inhibition −Serum (NW231; absence of serum, 2-day rather than 4-day assay): 10^2%
- cross reaction with rat α5β1 integrin (rat α5β1 integrin): does not cross react
- patients tested positive for anti-M200 antibodies ([2]; 0.5 mg/kg and 1.0 mg/kg dose levels): Three
- patients tested positive for anti-M200 ([2]; higher dose cohorts): No patients
- apoptosis of activated endothelial cells in vitro [3]: induce apoptosis
- Response outcome (refractory solid tumors; 0.5 mg/kg, CRC patient): (PD) (Progressive Disease (PD): At least a 20% increase in the sum of LD of target lesions, taking as reference the smallest sum LD recorded since treatment started, or the appearance of one or more new lesions.)
- Response outcome (refractory solid tumors; 1.0 mg/kg, HCC patient): (SD)
- Response outcome (refractory solid tumors; 1.0 mg/kg, PC patient): (SD)
- Response outcome (refractory solid tumors; 2.5 mg/kg, CRC patient): (PD) (Progressive Disease (PD): At least a 20% increase in the sum of LD of target lesions, taking as reference the smallest sum LD recorded since treatment started, or the appearance of one or more new lesions.)
- Response outcome (refractory solid tumors; 2.5 mg/kg, MEL Ocular patient): (PD) (Progressive Disease (PD): At least a 20% increase in the sum of LD of target lesions, taking as reference the smallest sum LD recorded since treatment started, or the appearance of one or more new lesions.)
- Response outcome (refractory solid tumors; 2.5 mg/kg, NSCLC patient): (SD)
- Response outcome (refractory solid tumors; 5.0 mg/kg, EC patient): (PD) (Progressive Disease (PD): At least a 20% increase in the sum of LD of target lesions, taking as reference the smallest sum LD recorded since treatment started, or the appearance of one or more new lesions.)
- Response outcome (refractory solid tumors; 5.0 mg/kg, HCC patient): (SD)
- Response outcome (refractory solid tumors; 5.0 mg/kg, THY patient): (PD) (Progressive Disease (PD): At least a 20% increase in the sum of LD of target lesions, taking as reference the smallest sum LD recorded since treatment started, or the appearance of one or more new lesions.)
- Response outcome (refractory solid tumors; 10.0 mg/kg, BC patient): (SD)
- Response outcome (refractory solid tumors; 10.0 mg/kg, CRC patient (two patients)): (SD)
- Response outcome (refractory solid tumors; 10.0 mg/kg, MEL patient): (PD) (Progressive Disease (PD): At least a 20% increase in the sum of LD of target lesions, taking as reference the smallest sum LD recorded since treatment started, or the appearance of one or more new lesions.)
- Response outcome (refractory solid tumors; 10.0 mg/kg, PARO patient): (SD)
- Response outcome (refractory solid tumors; 10.0 mg/kg, RCC patient): (SD)
- Response outcome (refractory solid tumors; 15.0 mg/kg, EC patient): (PD) (Progressive Disease (PD): At least a 20% increase in the sum of LD of target lesions, taking as reference the smallest sum LD recorded since treatment started, or the appearance of one or more new lesions.)
- Response outcome (refractory solid tumors; 15.0 mg/kg, PRO patient): (PD) (Progressive Disease (PD): At least a 20% increase in the sum of LD of target lesions, taking as reference the smallest sum LD recorded since treatment started, or the appearance of one or more new lesions.)
- overall response outcome: progressive disease (PD) (refractory solid tumors; 21 treated patients, 0.5-15 mg/kg): 10 patients
